Experimental data taken from patent publication US20250198990A1 (Stanford University, published 2025).

B1: Full-length mouse LAG-3 fused to CFP or YFP, on Expi293F cells (receptor, UniProt Q61790 24-521, looked up)
chain: GPGKELPVVWAQEGAPVHLPCSLKSPNLDPNFLRRGGVIWQHQPDSGQPTPIPALDLHQGMPSPRQPAPGRYTVLSVAPGGLRSGRQPLHPHVQLEERGLQRGDFSLWLRPALRTDAGEYHATVRLPNRALSCSLRLRVGQASMIASPSGVLKLSDWVLLNCSFSRPDRPVSVHWFQGQNRVPVYNSPRHFLAETFLLLPQVSPLDSGTWGCVLTYRDGFNVSITYNLKVLGLEPVAPLTVYAAEGSRVELPCHLPPGVGTPSLLIAKWTPPGGGPELPVAGKSGNFTLHLEAVGLAQAGTYTCSIHLQGQQLNATVTLAVITVTPKSFGLPGSRGKLLCEVTPASGKERFVWRPLNNLSRSCPGPVLEIQEARLLAERWQCQLYEGQRLLGATVYAAESSSGAHSARRISGDLKGGHLVLVLILGALSLFLLVAGAFGFHWWRKQLLLRRFSALEHGIQPFPAQRKIEELERELETEMGQEPEPEPEPQLEPEPRQL
notes: whole, on cells; Two plasmids, one CFP and one YFP fusion, co-transfected for flow-FRET; also called mLAG-3^CFP; mLAG-3^YFP; not shown: CFP or YFP from pECFP / pEYFP plasmids

Assays:
[1] = biological target: Wild-type mouse LAG-3 domains 1 and 2 (D1D2) displayed on yeast as N-terminal fusion to Aga2 (mouse; Saccharomyces cerevisiae) (UniProt Q61790); assay: yeast surface display titration, flow cytometry; monomeric D1D2 on yeast
[2] = biological target: the molecule itself; assay: flow-FRET in Expi293 cells; self-association
Method: Flow cytometry-based Förster resonance energy transfer (flow-FRET) assays have been utilized for live cell detection of proximal protein associations at distances <100 Å and was thus used to assess LAG-3 dimerization.
Expi293F cells (ThermoFisher Scientific) were transfected with a CFP:YFP:PEI ratio of 0.5:0.5:3 in a 24-well plate at 37° C. in 8% CO₂. Cells were analyzed after 36 hours using a BD LSRII flow cytometer. The 407 nm violet laser was used to excite CFP and the 488 nm blue laser was used to excite YFP. CFP was detected using a 450/50 bandpass filter after excitation with the violet laser and YFP was detected using a 530/30 bandpass filter after excitation with the blue laser.

Row | Molecule | Kd [1] | binding result [2]
1 | C9B7W anti-mouse LAG-3 antibody | 0.136 nM | 
2 | B1 |  | binds
